Experimental data taken from publication PMC3517063 (Proteomics, 2012).

B1: proteasomal 20S core particle subunit α1 with His6 tag (α1-His6) (natural protein, Haloferax volcanii, UniProt Q9V2V6 1-252, looked up)
chain: MQGQAQQQAYDRGITIFSPDGRLYQVEYAREAVKRGTASIGVRTPEGVVLAADKRSRSPLMEPTSVEKIHKADDHIGIASAGHVADARQLIDFARRQSQVNRLRYGEPIGIETLTKEVTDHIQQYTQVGGARPFGVALLIGGVENGTPRLYETDPSGTPYEWKAVSIGADRGDHQEHLEENFRDDLTLDEGIELALEAIASTSDEGTAPDGVDVATVSAETERFVELSNDEIESYLEANDLLATEDDEQTEE
B2: proteasomal 20S core particle subunit α2 with C-terminal His6 tag (α2-His6) (natural protein, Haloferax volcanii, UniProt Q9V2V5 1-249, looked up)
chain: MNRNDKQAYDRGTSLFSPDGRIYQVEYAREAVKRGAPVLGVRTADGVVLAALRSTPSELMEAESIEKLHKLDDALGAATAGHVADARKLVDFARTTAQREHLRYGEPIGVETLTKTITDNIQESTQSGGTRPYGASLLIGGVENGSGRLFATDPSGTPQEWKAVAIGGHREDVQAALEDGYAEDLSLEDGLALAVEALVAADEEIESDELNLVTVSEAGYEIVDEETIAELFADATADDESDETDEREE

Molecular target: the molecule itself
Test: cross-linking

Protein | binding result
B1 | binds
B2 | binds
